Data from publication PMC3057995, “Potent Anti-Tumor Effect Generated by a Novel Human Papillomavirus (HPV) Antagonist Peptide Reactivating the pRb/E2F Pathway” (PLoS ONE, 2011).
Bridge positions count the residues as written; N and C are the ends. Ends that are not written are not given here.

Key:
[1] = target: T1, His-HPV16E7 fusion protein (human papillomavirus type 16, UniProt P03129 1-98); test: ELISA
T1 construct: source: E. coli BL21, extracted in denaturing conditions, purified (Ni-NTA agarose)
T1 sequence (looked up): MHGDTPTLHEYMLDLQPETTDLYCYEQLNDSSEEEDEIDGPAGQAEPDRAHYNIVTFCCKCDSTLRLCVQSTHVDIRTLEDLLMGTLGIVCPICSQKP

SiHa cells = tested on: SiHa cells
Protocol: The 5-FAM labeled peptides were used to monitor the cell uptake and intracellular location of the peptide. SiHa cells were seeded on the coverslips in 12-well plates (1×10^5/well) and cultured overnight. The DMEM was replaced with a fresh medium, supplemented with 80 µM 5-FAM labeled peptide. Cells were washed three times with a PBS buffer after 8 h and 24 h of incubation, respectively, and then observed under a fluorescence microscope Leica DMI 6000B. Images were captured with Leica AF6500 software (Leica Mikrosysteme Vertrieb GmbH, Wetzlar, Germany).

Q: Which inhibitory ratio of HPV16E7 mAb binding at 10^13 CFU/ml [1] does the source give for “positive phage clones displaying the peptide PKGLDWC” here?
A: > 50%

Q: `O=C(O)c1ccc2c(c1)C(=O)OC21c2ccc(O)cc2Oc2cc(O)ccc21` [5-Fam] was tested. Which “cell fluorescence (uptake control)” value (SiHa cells) did it give?
A: did not show fluorescence

B1: Pep-7 (peptide)
peptide: SACPKGLDWCGG
modifications: disulfide 3-10 (inferred)
notes: also called selected peptide; antagonist peptide; source: synthetic peptide (Chinese Peptide Company), HPLC purified
Q: Does B1 bind ([1]; both partners purified)?
A: binds
